According to the DeepSol protein solubility set:

Assay: soluble on expression in E. coli; label from the status in PepcDB or PDB records

Sequence | soluble on expression in E. coli
MGSDKIHHHHHHMNQTTLNTIRNYVMQASAQWISDFNQGNVQTCINRYLPSATMQVHPFGKFTSIEAIADFWLEFAKSNPSDLVYRNIEIKVLNDRQAVLSANWRMNIASGFISKELWTLAEDGQWYLEEDDFTVLAQHTKPVDDKRTALVLVDLQNDYFSGGRFELDNTDSAAKQASQLLAHFRQKELPVIHMQHLFEETNAAFFSANTVGAEIESSVKPTANEPVIIKHQIDSFIETTLEQTLVELGIDNLVIVGAMAQACVQTLCRSAVNKGYKCQVISDAIAAPKLEYQQHSFTGGQLVAANLLSLSFGGADITDTKGWLQENK | not soluble
MSLTRRSDTSLRAALIIQNWYRGYKARLKARQHYALTIFQSIEYADEQGQMQLSTFFSFMLENYTHIHKEELELRNQSLESEQDMRDRWDYVDSIDVPDSYNGPRLQFPLTCTDIDLLLEAFKEQQILHAHYVLEVLFETKKVLKQMPNFTHIQTSPSKEVTICGDLHGKLDDLFLIFYKNGLPSERNPYVFNGDFVDRGKNSIEILMILCVSFLVYPNDLHLNRGNHEDFMMNLRYGFTKEILHKYKLHGKRILQILEEFYAWLPIGTIVDNEILVIHGGISETTDLNLLHRVERNKMKSVLIPPTETNRDHDTDSKHNKVGVTFNAHGRIKTNGSPTEHLTEHEWEQIIDILWSDPRGKNGCFPNTCRGGGCYFGPDVTSKILNKYQLKMLIRSHECKPEGYEICHDGKVVTIFSASNYYEEGSNRGAYIKLCSGTTPRFFQYQVTKATCFQPLREGHHHHHH | not soluble
KLKSVEKKLSESESRLELALEAANMGTWSWNIKRNEIFWSEQVLYIFGIKPEEFKGDFESYLNLIPSNERVQVEEYITNVLAKLQKEFFFDHSIQTPSGVKKRVYCKGKLYADHAGMPDSMTGVVLDVT | not soluble
MRGNKGGERSRTFTVQARIVGRWQHPCSPRPEGRVHPQLPPHAAATRLACVRLYKHCGICGTPTHAVSHRNDTHDGDSAPTRCPRAEMPLSKKSSSLRQAIPCSVLFAADPLQVPSNACVGNRLSTVRRQHQFSASRHTKHAPSVAEDGNGIPRPPPVSVGAGVVDNANEPFAEYARLSTSLASRAHVEPFSSAPMSSFASCPYVAASSHGSTTMSKALRRLPTTVTALPGMAPPPPTISAAVPRNGHRTAGRTSAPLRVHLVHRTRSPPGLAHSPPAYSSTVTTSMPHEIPPTSALVLPYCTDAQLRNLFATLFVRTGDATWSVHQHILPFLTVRQHCNLSAAPSQVTAFFGLTSHSDEDVHEKGATGAAGHQGEQAFFGGPWATKEMNRVASQLCYSFVYVGILGCGEEMCWDTLPMPLGGIPALARRSPVRNAYNTGSTSASQSPVTRSSSSSAHPATPEKQCLCPTPHRSLRNSPCVSSSALGVVALMEGLKQHQPSRMVEDGGADDDEGGPKSTVLYHTDQLESSTLDVVTTSTLTSVEFRGVVEAPPLVQEVAFVRGATRSYKLSWETARGSLHT | soluble
MGSDKIHHHHHHMIELDNIKICPLAGIDDAIIIQSLNKASLTTSTSAIGPAVAEMVTRHGAVLLRGFAPEGTSAMAALFASLQWKPLQYTYRSTPRTSVSEGIYTATEFPASEEIMLHSENAFQADWPTRIGFHCAVPARAGGETPIGSLEKITARIDTGLFDEFRRRGVSYVRNYSDYVDLPWQVVFQSSDRGDVEEYCKNHGIGFEWRNSGLRTWQACQGTATHPERGNEVWFNQAHMFHYTALGPEMASNLLSIFGEEELPRNAYYGDGGVIPKDAVEHIREAFSAERASFGWEKDDILLLDNMRYCHGRNPFEGPRQVLVSMGRGYASVVDSSH | not soluble
LEADKCKEREEKIILVSSANEIDVRPCPLNPNEHKGTITWYKDDSKTPVSTEQASRIHQHKEKLWFVPAKVEDSGHYYCVVRNSSYCLRIKISAKFVENEPNLCYNAQAIFKQKLPVAGDGGLVCPYMEFFKNENNELPKLQWYKDCKPLLLDNIHFSGVKDRLIVMNVAEKHRGNYTCHASYTYLGKQYPITRVIEFITLEENKPTRPVIVSPANETMEVDLGSQIQLICNVTGQLSDIAYWKWNGSVIDEDDPVLGEDYYSVENPANKRRSTLITVLNISEIESRFYKHPFTCFAKNTHGIDAAYIQLIYPVTNFQK | soluble
MGSDKIHHHHHHMYNLGKGVQECTETSLLTALGGMERRNLSELDTTLTSDNLPVVSHDFNTWRISTLPDRLIRELHSADVKNIPVIIREVSNGEITESYTVTNDIIPFLEPLLDKVFDVNPGATFFLDGRDFEAHIITAWLSRRPKYRQRVVLLFYTFEYSSGEAFFDAVKQVSPEPDWRETVALMPVIFPQELPRLAKLIDLSDIAVEDLYEGGKIWIDSMLRQPMRVVAVHIVMARVKPEQLGLCDKPEIVRAFNADYAAVRLAYYVKDNPEVRKMRPHLKLATATRCYDFSAQLENGEKAEFSINIRTGRPMPRETDERKYIRRGYGIPGNAAAIADWVISDRSEDEMSFWEWRNKGVPRRVDHHCPHLDVIEQDGKSVP | not soluble
MPELDESASFAELLEAHAGGTRNVRPGDRISAAIVAITDDSVFVATGSKVDGVIDRRELEEADGSLPYAVGDRVDLYVTAVNGQEIRLSKGLSGQGGAAVLEEARDSGVPVEGRVTGTCKGGYNVDVLRKRAFCPGSQIDLHQLEDAESVVGQTFQFLVTRVEQHGRNIVVSRRALLERERDAALATFLEGVKEGDVLEGTVTRLAPFGAFVEIAPGVDGMVLEHHHHHH | not soluble
MGWPFIGETISFFKPHRSDSIGTFLQQRVSRYGKVFKSNICGGKAVVSCDQELNMFILQNEGKLFTSDYPKAMHDILGKYSLLLATGEIHRKLKNVIISFINLTKSKPDFLHCAENLSISILKSWKNCREVEFHKEVKIFTLSVMVNQLLSIKPEDPARLYVLQDFLSYMKGFISLPIPLPGTGYTNAIKVRSNRNIHQNAIIEDMNNAIREEDFLDSIISNEDEEHAAIRAKKGDGELLNWEDYQKMEFTQCVISEALRCGNIVKTVHRKATHDIKFNEYVIPKGWKVFPIFTAVHLDPSLHENPFEFNPMRWTKTTAFGGGVRVCPGGELGKLQIAFFLHHLVLSYRWKIKSDEMPIAHPYVEFKRGMLLEIEPTKFLED | soluble
GGVIATQMTYKVYMSGTVNGHYFEVEGDGKGRPYEGEQTVKLTVTKGGPLPFAWDILSPQCQYGSIPFTKYPEDIPDYVKQSFPEGFTWERIMNFEDGAVCTVSNDSSIQGNCFTYHVKFSGLNFPPNGPVMQKKTQGWEPSSERLFARGGMLIGNNFMALKLEGGGHYLCEFKTTYKAKKPVKMPGYHYVDRKLDVTNHNKDYTSVEQCEISIARKPVVA | soluble
MASENNGSRSDSESITAPKADSTVVEPRKIALITGITGQDGSYLTEFLLGKGYEVHGLIRRSSNFNTQRINHIYIDPHNVNKALMKLHYADLTDASSLRRWIDVIKPDEVYNLAAQSHVAVSFEIPDYTADVVATGALRLLEAVRSHTIDSGRTVKYYQAGSSEMFGSTPPPQSETTPFHPRSPYAASKCAAHWYTVNYREAYGLFACNGILFNHESPRRGENFVTRKITRALGRIKVGLQTKLFLGNLQASRDWGFAGDYVEAMWLMLQQEKPDDYVVATEEGHTVEEFLDVSFGYLGLNWKDYVEIDQRYFRPAEVDNLQGDASKAKEVLGWKPQVGFEKLVKMMVDEDLELAKREKVLVDAGYMDAKQQPLEHHHHHH | soluble
VRSSSRTPSDMPVAHVVANPQAEGQLQWKNAGANALLANGVELRDNQLVVPSEGLYLIYSQVLFSGQGCPSTHVLLTHTISRIAVSYQTPVNLLSAIRSPCQRETPEGAEANPWYEPIYLGGVFQLEPGDRLSAEINRPDYLDFASTGQVYFGIIAL | soluble
MSRRAGTPTAKKVTQLVNVEEHVEGFRQVREAHRRELIDDYVELISDLIREVGEARQVDMAARLGVSQPTVAKMLKRLATMGLIEMIPWRGVFLTAEGEKLAQESRERHQIVENFLLVLGVSPEIARRDAEGMEHHVSEETLDAFRLFTQKHGAK | soluble
GKLVRRVLSINEVLGYNPDKGGISFIEAFSWDPVTDTHVFSAMGSSYILENKIATRLGIPGKKKKAIYDEIEKRAKILERLSDEGIVNYWEFFNTIAKITKSGMLRIQ | not soluble
MSLNYLSGQAANPRGIIGEITTKIWSSYFEDLSKWTINNTEMAGVTKVLDVGYGGGSNVKNLVNLDQNLTIYGIDISKESYKTASALNKKAISDGKVKLTVADVADMDYREESFDLVYAIQTHMYWDNLQKGFEEIYRVMSQEGVLILSSEKDKIDYHMDEYKTTASLTALLKEIGFREVVEKEKGNWVLYTVKKEGHHHHHH | soluble
SLGRNWRSWRYAERADDLLISRGVLWREETVVPYGRMQLVEVTSGPVERHFGLASVQLHTAAAATDATIPGLDPAEAERLRDRLTELGEARSAG | soluble
MSALKSFTVNFHQEDNAKATTVHKLSEEDFNKATEKGTRHLFDLDTNVGFFVFFDAEDAEGNDQYLMLQYEGDHEEPTACYGFDLKLYYQFLALYLNDLEFQGETDEEEEEYGPIHHLAHLLYHIVEDGKSIEV | not soluble
MGKTSQRKQCDCENPSKPCLSTSIPLRMSSYTFKRPVTKITSHLGNEVRYYQWEETFKKPEQACWQKRLQGLQAYSSAGELLSTSDLAKTLKDLTSTDTVASASDTQATSIDITSVPTLESSSHLANMIPEAGPQILCKEFLVTEQDIINQERKVKIARERLAVALIAHKLASEMETVRGSRKANL | not soluble
MALILTFLGKSGVARTKIAIAAAKLLASQGKRVLLAGLAEPVLPLLLEQTLTPDPQQIAPNLEVVQFQSSVLLERNWEEVKKLEAQYLRTPIIKEVYGQELVVLPGMDSALALNAIREYDASGKYDAIVYDGTGDAFTLRMLGLPESLSWYVRRFRQLFVNSDLGKTIAESPLIQPLISSFFNVNWTADNFAQPTNQVNNFLDKGKEALADPKRVAAFLVTTADPLEVVSVRYLWGSAQQIGLTIGGVIQVSSQTEGDLSAEFTPLEHHHHHH | not soluble
MQILEPQQFATWNEPIEMLYACHSKVKRFCRQLSILPDYLEKHGYTQAVLNDVEQILSYFNRAAPLHHDDEELDFFPQLVKVAPQTQTSIDELEKQHEYLHENWNALSVQLEELISEQRQDIDKHLIERFIQGYDRHIALEEPLFEMGRECLSADILTEMGKHMSARRQVKE | not soluble
MGSDKIHHHHHHAFTTGENDPFIKSPTVAKLTNTPNGPLISCDLKALKDTVNFPLSQLTEELQIVKLDNRDEALIGGWIRTTVGEKYILVSNNKQTPYKLFDRTGKFITNIGSYGQGPNEYLNTYAEQLDEANNRIYILPWQSSKILVFDLKGNALDPIPLCLRVPKGKFRVNTAKSEVTVTVLPFPKWPAVVWTQDLKGKRKNFVAPGSLAMPQDFSNEVSMGNNTAAYDVMLMKIMPQPSVDTLYHYNAASNKLEGRFTVKYPSNDKIPWHAYYEIPKYFIGDVSFPIQIDESTFSGSKPAYYMVDKKTLHGNYVRLYNDFISTPSQTIYPSFNNGYYVTNMEPMALKEILEKEVNKKGLTADKKKKVQNLIKTLNDNDNNIVMFAKLKQ | not soluble
DSDCHFAEQRDFSSQWFRVDDGGEIPDEQELHWHLEYLQQNPNAARDLLHALLPDKDASQGDWRCSYRLLQSADLMPLVFDYRWLMNGQFAFYLVDSASQENGGVATTLLVRALFDDYLRNLKSFSADLKDMVNIMEKGIECSDCAGAVK | not soluble
MGEKRKTRQAEVNIGMVGHVDHGKTTLTKALTGVWTDTHSEELRRGITIKIGFADAEIRRCSNCGRYSTSPICPYCGHETEFIRRVSFIDSPGHEALMTTMLAGASLMDGAILVIAANEPCPRPQTREHLMALQIIGQKNIIIAQNKIELVDKEKALENYRQIKEFIKGTVAENAPIIPISALHGANIDVLVKAIEEFIPTPKRDSNKPPKMLVLRSFDVNKPGTPPEKLVGGVLDGSIVQGKLKVGDEIEIRPGVPYEEHGRIKYEPITTEIVSLQAGGQFVEEAYPGGLVGIGTKLDPYLTKGDLMAGNVVGKPGKLPPVWTDLRLEVHLLERVVGTEQELNVEPIKRKEVLLLNVGTARTMGLVTALGKDEIELKLQIPVCAEPGERVAISRQIGSRWRLIGYGIIKELEHHHHHH | soluble
